Experimental data: patent US20250282892A1 (BIOMUNEX PHARMACEUTICALS, published 2025)

Legend:
EGFR His tag = target: T1, EGFR His tag (UniProt P00533 25-645); assay: direct ELISA, His-tagged antigen coated, anti-human Fc-HRP detection
T1 construct: Recombinant His-tagged antigen; not shown: His tag

HER3 His tag = target: T2, HER3 His tag (UniProt P21860 20-643); assay: as above
T2 construct: Recombinant His-tagged antigen; not shown: His tag

[1] = target: T3, HER3 protein expressed on the cell surface of SW-1990 cells (UniProt P21860 20-1342, limits assumed); assay: flow cytometry on SW-1990 cells (FIG. 10)
T3 construct: whole, on cells; SW-1990 cells carry HER3 and EGFR together; the flow cytometry signal is not split between them

[2] = target: T4, EGFR protein expressed on the cell surface of SW-1990 cells (UniProt P00533 25-1210, limits assumed); assay: flow cytometry on SW-1990 cells (FIG. 10)
T4 construct: whole, on cells; SW-1990 cells carry HER3 and EGFR together; the flow cytometry signal is not split between them

EC50 (EGFR His tag) [nM]	EC50 (HER3 His tag) [nM]	binding result [1]	binding result [2]	Binder
0.39	0.16	–	–	Patri-Matu-Fc (bispecific antibody, human IgG1, kappa, Tetravalent tandem Fab-Fc: external Fabs patritumab (anti-HER3), internal Fabs matuzumab (anti-EGFR); 2 heavy chains and 4 light chains; also called 3Patri-1Matu-Fc) heavy: not shown light 1: not shown light 2: DIQMTQSPSSLSASVGDRVTITCSASSSVTYMYWYQQKPGKAPKLLIYDTSNLASGVPSRFSGSGSGTDYTFTISSLQPEDIATYYCQQWSSHIFTFGQGTKVEIKRTVAAPSVFIFPPSDEQLKSGTASVTCLLNNFYPREAKVQWKVDNALQSGNSQESVTEQDSKDSTYSLVSTLTLSKADYEKHKVYACEVTHQGLSSPVTKSFNRGEC
0.09	–	–	–	Matuzumab (antibody, V domains shown, Parental monoclonal antibody used as positive control; also called EMD72000; parental antibody (anti-EGFR)) VH: QVQLVQSGAEVKKPGASVKVSCKASGYTFTSHWMHWVRQAPGQGLEWIGEFNPSNGRTNYNEKFKSKATMTVDTSTNTAYMELSSLRSEDTAVYYCASRDYDYAGRYFDYWGQGTLVTVSS VL: DIQMTQSPSSLSASVGDRVTITCSASSSVTYMYWYQQKPGKAPKLLIYDTSNLASGVPSRFSGSGSGTDYTFTISSLQPEDIATYYCQQWSSHIFTFGQGTKVEIK
–	–	binds	binds	BMX003-010 (humanized Patri-Cetu-Fc) (bispecific antibody, human IgG1, kappa) heavy: not shown light 1: not shown light 2: EIVLTQSPDFQSVTPKEKVTITCRASQSIGTNIHWYQQKPDQSPKLLIKYASESISGVPSRFSGSGSGTDFTLTINSLEAEDAATYYCQQNNNWPTTFGAGTKLEIKRTVAAPSVFIFPPSDEQLKSGTASVTCLLNNFYPREAKVQWKVDNALQSGNSQESVTEQDSKDSTYSLVSTLTLSKADYEKHKVYACEVTHQGLSSPVTKSFNRGEC
–	–	binds	binds	BMX003-011 (humanized Patri-Cetu-Fc modified) (bispecific antibody, human IgG1, kappa, Identical to BMX003-010 except for 2 mutations in the Fc domain (S239D and I332E, printed '1332E')) heavy: not shown light 1: not shown light 2: EIVLTQSPDFQSVTPKEKVTITCRASQSIGTNIHWYQQKPDQSPKLLIKYASESISGVPSRFSGSGSGTDFTLTINSLEAEDAATYYCQQNNNWPTTFGAGTKLEIKRTVAAPSVFIFPPSDEQLKSGTASVTCLLNNFYPREAKVQWKVDNALQSGNSQESVTEQDSKDSTYSLVSTLTLSKADYEKHKVYACEVTHQGLSSPVTKSFNRGEC
